Results: PMC2664085

Tests used:
[1] = substrate: Nc1ncnc2c1ncn2[C@@H]1O[C@H](COP(=O)(O)OP(=O)(O)OP(=O)(O)O)[C@@H](O)[C@H]1O; assay: ATP dependence of 3H-DNPSG uptake into RLIP76-proteoliposomes; assay type: biochemical, Homo sapiens; details: co-substrate DNP-SG, 37°C, 5 min, random bi-bi fit
[2] = substrate: N[C@@H](CCC(=O)N[C@@H](CSc1ccc([N+](=O)[O-])cc1[N+](=O)[O-])C(=O)NCC(=O)O)C(=O)O; assay: ATP-dependent uptake of 3H-DNPSG into RLIP76-proteoliposomes, filtration; assay type: biochemical, Homo sapiens; details: ATP co-substrate, 37°C, 5 min, random bi-bi fit, labelled compound

B1: recombinant RLIP76 (Homo sapiens) (protein)
chain: MTECFLPPTSSPSEHRRVEHGSGLTRTPSSEEISPTKFPGLYRTGEPSPPHDILHEPPDVVSDDEKDHGKKKGKFKKKEKRTEGYAAFQEDSSGDEAESPSKMKRSKGIHVFKKPSFSKKKEKDFKIKEKPKEEKHKEEKHKEEKHKEKKSKDLTAADVVKQWKEKKKKKKPIQEPEVPQIDVPNLKPIFGIPLADAVERTMMYDGIRLPAVFRECIDYVEKYGMKCEGIYRVSGIKSKVDELKAAYDREESTNLEDYEPNTVASLLKQYLRDLPENLLTKELMPRFEEACGRTTETEKVQEFQRLLKELPECNYLLISWLIVHMDHVIAKELETKMNIQNISIVLSPTVQISNRVLYVFFTHVQELFGNVVLKQVMKPLRWSNMATMPTLPETQAGIKEEIRRQEFLLNCLHRDLQGGIKDLSKEERLWEVQRILTALKRKLREAKRQECETKIAQEIASLSKEDVSKEEMNENEEVINILLAQENEILTEQEELLAMEQFLRRQIASEKEEIERLRAEIAEIQSRQQHGRSETEEYSSESESESEDEEELQIILEDLQRQNEELEIKNNHLNQAIHEEREAIIELRVQLRLLQMQRAKAEQQAQEDEEPEWRGGAVQPPRDGVLEPKAAKEQPKAGKEPAKPSPSRDRKETSI
Protein B1 has a Km [1] of 4400 ± 700 µM and a Km [2] of 55 ± 4 µM.
